# Results published in patent publication US5616559, “Papillomavirus E2 trans-activation repressors” (Biogen, Inc., dated 1997).
# B1: BPV1 E2 mutant 360S, full-length form (other)
# chain: METACERLHVAQETQMQLIEKSSDKLQDHILYWTAVRTENTLLYAARKKGVTVLGHCRVPHSVVCQERAKQAIEMQLSLQELSKTEFGDEPWSLLDTSWDRYMSEPKRCFKKGARVVEVEFDGNASNTNWYTVYSNLYMRTEDGWQLAKAGADGTGLYYCTMAGAGRIYYSRFGDEAARFSTTGHYSVRDQDRVYAGVSSTSSDFRDRPDGVWVASEGPEGDPAGKEAEPAQPVSSLLGSPACGPIRAGLGWVRDGPRSHPYNFPAGSGGSILRSSSTPVQGTVPVDLASRQEEEEQSPDSTEEEPVTLPRRTTNDGFHLLKAGGSCFALISGTANQVKCYRFRVKKNHRHRYENCTTTSFTVADNGAERQGQAQILITFGSPSQRQDFLKHVPLPPGMNISGFTASLDF
# Biological target: the molecule itself
# Experiment: homodimerization; UV cross-linking, yeast extract
protein,measurement,value
B1,binding result,no binding
